For 34 variants, self-cleavage results are on record in the RNAGym collection of RNA variant scans (doi:10.1093/nar/gkz1192).

First the molecules themselves.
B1: CPEB3 Ribozyme (parent)
chain: UAACAGGGGGCCACAGCAGAAGCGUUCACGUCGCAGCCCCUGUCAGAUUCUGGUGAAUCUGCGAAUUCUGCUGUAUAUCUC

The variants in the data set derive from B1. Put plainly: self-cleavage, relative activity (ratio to wild type); higher = more cleavage; in vitro, sequencing. The essentials: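 CPEB3 self-cleaving ribozyme mutant libraries were made by rounds of error-prone PCR, barcoded, and transcribed in vitro with T7 RNA polymerase for 5 hours at 37°C. Cleavage occurred during transcription and a 15 min DNase I step before EDTA stop. RNAs were reverse transcribed with template switching and Illumina-sequenced, with DNA sequencing mapping barcodes to variants. Relative activity is the variant's cleaved/total read fraction divided by wild type's (minimum 5 reads), averaged across three batches.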
On to UAACAGGGGGCCACAGCAGAAGCGUUCACGUCGCAGCCCCUGUCAGAUUCUGGUAAAUCUGCGAACUCUGCUGUAUAUCUC, for which the self-cleavage came out at 0.22. With UAACAGGGGGCCACAGCAGAAGCGUUCACGUCGCAGCCCCUGUCAGAUUCUGGUCAAUCUGCGAAUUCUGCAGUAUAUCUC, the self-cleavage worked out at 0.4. Consider UAACAGGGGGCCACAGCAGAAGCGUUCACGUCGCAGCCCCUGUCAGAUUCUGGUAAAUCUGCGAAUUCUGCUGUAUAUCCC, for which the self-cleavage was 1.09. For UAACAGGGGGCCACAGCAGAAGCGUUCACGUCGCAGCCCCUGUCAGAUUCUGGUAAAUCUGCGAAUUCUGCUGUAUAUCAC, the self-cleavage worked out at 1.15. The result for UAACAGGGGGCCACAGCAGAAGCGUUCACGUCGCAGCCCCUGUCAGAUUCUGGUAAAUCUGCGAAUUCUGCUGAAUAUCUC reads 1.18; that for UAACAGGGGGCCACAGCAGAAGCGUUCACGUCGCAGCCCCUGUCAGAUUCUGGUCAAUCUGUGAAUUCUGCUGUAUAUCUC, 0.22; that for UAACAGGGGGCCACAGCAGAAGCGUUCACGUCGCAGCCCCUGUCAGAUUCUGGUCAAUCUGCGAAUUCUGCUGUAUGUCUC, 1.04. For UAACAGGGGGCCACAGCAGAAGCGUUCACGUCGCAGCCCCUGUCAGAUUCUGGUCAAUCUGCGAAUUCUGCUGUAUAUCAC, the self-cleavage amounted to 0.7.

As to UAACAGGGGGCCACAGCAGAAGCGUUCACGUCGCAGCCCCUGUCAGAUUCUGGUAAAUCUGCGAAUUCUGCCGUAUAUCUC, the self-cleavage is 0.83. For UAACAGGGGGCCACAGCAGAAGCGUUCACGUCGCAGCCCCUGUCAGAUUCUGGUAAAUCUGCGAAUUCUGCAGUAUAUCUC, the self-cleavage was found to be 0.53. For the variant UAACAGGGGGCCACAGCAGAAGCGUUCACGUCGCAGCCCCUGUCAGAUUCUGGUUAAUCUGCGAAUUCUGCUGUGUAUCUC, the self-cleavage came out at 0.92. As to UAACAGGGGGCCACAGCAGAAGCGUUCACGUCGCAGCCCCUGUCAGAUUCUGGUUAAUCUGCGAAUUCUGCUGUAUAUCUC, the self-cleavage was found to be 1.02. The figure for UAACAGGGGGCCACAGCAGAAGCGUUCACGUCGCAGCCCCUGUCAGAUUCUGGUCAAUCUGCGAAUUCUGCUGUAUAUCUC is 0.94; for UAACAGGGGGCCACAGCAGAAGCGUUCACGUCGCAGCCCCUGUCAGAUUCUGGUUAAUCUGUGAAUUCUGCUGUAUAUCUC it is 0.23. Regarding UAACAGGGGGCCACAGCAGAAGCGUUCACGUCGCAGCCCCUGUCAGAUUCUGGUCAAUCUGCGAAUUCUGCUGGAUAUCUC, the self-cleavage is 1.13.

In the case of UAACAGGGGGCCACAGCAGAAGCGUUCACGUCGCAGCCCCUGUCAGAUUCUGGUAAAUCUGCGAAUUCGGCUGUAUAUCUC, the self-cleavage came to 0.34.

On to UAACAGGGGGCCACAGCAGAAGCGUUCACGUCGCAGCCCCUGUCAGAUUCUGGUAAAUCUGCGAAUUCCGCUGUAUAUCUC, for which the self-cleavage was 0.28.

Turning to UAACAGGGGGCCACAGCAGAAGCGUUCACGUCGCAGCCCCUGUCAGAUUCUGGUAAAUCUGCGAAUUCAGCUGUAUAUCUC, the self-cleavage came to 0.39. Consider UAACAGGGGGCCACAGCAGAAGCGUUCACGUCGCAGCCCCUGUCAGAUUCUGGUCAAUCUGCGAAUUCCGCUGUAUAUCUC, for which the self-cleavage was determined as 0.44. For UAACAGGGGGCCACAGCAGAAGCGUUCACGUCGCAGCCCCUGUCAGAUUCUGGUUUAUCUGCGAAUUCUGCUGUAUAUCUC, the self-cleavage came out at 0.7.

Regarding UAACAGGGGGCCACAGCAGAAGCGUUCACGUCGCAGCCCCUGUCAGAUUCUGGUUAAUCUGCGAUUUCUGCUGUAUAUCUC, the self-cleavage stood at 0.31. Regarding UAACAGGGGGCCACAGCAGAAGCGUUCACGUCGCAGCCCCUGUCAGAUUCUGGUUAAUCUGCGAGUUCUGCUGUAUAUCUC, the self-cleavage worked out at 0.24. For UAACAGGGGGCCACAGCAGAAGCGUUCACGUCGCAGCCCCUGUCAGAUUCUGGUUAAUCUGCGAAUUCUGCUGUAUAUUUC, the self-cleavage came out at 1.16. Regarding UAACAGGGGGCCACAGCAGAAGCGUUCACGUCGCAGCCCCUGUCAGAUUCUGGUAAAUCUGCGAAUACUGCUGUAUAUCUC, the self-cleavage came to 0.28. Take UAACAGGGGGCCACAGCAGAAGCGUUCACGUCGCAGCCCCUGUCAGAUUCUGGUAAAUCUGCGAAUCCUGCUGUAUAUCUC: the self-cleavage stood at 0.22. The result for UAACAGGGGGCCACAGCAGAAGCGUUCACGUCGCAGCCCCUGUCAGAUUCUGGUCAAUCUGCGUAUUCUGCUGUAUAUCUC reads 0.23; that for UAACAGGGGGCCACAGCAGAAGCGUUCACGUCGCAGCCCCUGUCAGAUUCUGGUCAAUCUGCGGAUUCUGCUGUAUAUCUC, 0.72. On to UAACAGGGGGCCACAGCAGAAGCGUUCACGUCGCAGCCCCUGUCAGAUUCUGGUCAAUCUGCGAAUACUGCUGUAUAUCUC, for which the self-cleavage came to 0.44. Consider UAACAGGGGGCCACAGCAGAAGCGUUCACGUCGCAGCCCCUGUCAGAUUCUGGUCAAUCUGCGAAUUCUCCUGUAUAUCUC, for which the self-cleavage was 0.17. For UAACAGGGGGCCACAGCAGAAGCGUUCACGUCGCAGCCCCUGUCAGAUUCUGGUAAAUCUGCGAAUUCUGCUGUAUACCUC, the self-cleavage amounted to 0.75. As for UAACAGGGGGCCACAGCAGAAGCGUUCACGUCGCAGCCCCUGUCAGAUUCUGGUAAAUCUGCGAAUUCUGCUGUAUAACUC, the self-cleavage is 1. For UAACAGGGGGCCACAGCAGAAGCGUUCACGUCGCAGCCCCUGUCAGAUUCUGGUCAAUCUGCGAAUUCUGCUGUAUAACUC, the self-cleavage came to 0.97. For the variant UAACAGGGGGCCACAGCAGAAGCGUUCACGUCGCAGCCCCUGUCAGAUUCUGGUCAAUCUGCGAAUUCUGCUGUAUACCUC, the self-cleavage was 0.94. On to UAACAGGGGGCCACAGCAGAAGCGUUCACGUCGCAGCCCCUGUCAGAUUCUGGUCAGUCUGCGAAUUCUGCUGUAUAUCUC, for which the self-cleavage is 0.37.
